Measured values from article PMC6941993 (2020).

B1: GP1_(SBAV)–Fc (Fc fusion)
chain: DHPTSCMVNHSTYYVHENKNATWCLEVSVTDVTLLMAEHDRQVLNNLSNCVHPAVEHRSRMVGLLEWIFRALKYDFNHDPTPLCQKQTSTVNETRVQINITEGFGSHGFEDTILQRLGVLFGSRIAFSNIQDLGKKRFLLIRNSTWKNQCEM
B2: GP1_(GTOV)–Fc (Fc fusion)
chain: ELPSLCRVNNSYSLIRLSHNSNQALSVEYVDVHPVLCSSSPTILDNYTQCIKGSPEFDWILGWTIKGLGHDFLRDPRICCEPKKTTNAEFTFQLNLTDSPETHHYRSKIEVGIRHLFGNYITNDSYSKMSVVMRNTTWEGQCSN

Biological target: stand-alone apical domain (sAD) designed from White-throated woodrat TfR1 (Neotoma albigula (White-throated …, N-linked glycan at Asn251 seen in the crystal)); two putative N-glycosylation sites (Asn204, Asn251), both partially glycosylated)
Test: SPR

Binder	Kd
B1	63 nM
B2	360 nM
